Assay results reported in patent publication US20240368272A1 (UNIVERSITY OF BERN, published 2024).
Blank lines part the entries; values can stand above or below the binder they belong to.

Tests used:
[1] = biological target: T1, N-terminally biotinylated KCNQ1 peptide (Nterm-Biotin-(CH2O)4-AEKDAVNESGRVEFGSYADA-Cterm) (human, N-terminal Biotin-(CH2O)4-); assay: BLI (Octet RED96), biotinylated peptide on streptavidin tips, antibody in solution, 1:1 model, duplicate
T1 construct: Immobilised on streptavidin biosensor tips for Octet BLI
T1 peptide: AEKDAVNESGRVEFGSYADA
Protocol: (§1) FIG. 16. Kinetic measurements of mAb binding to 20aa KCNQ1 target sequence.
(§2) Binding kinetics of KCNQ1 peptide interactions with IgG2a 8-F11-D4 was monitored using Octet RED96 Bio-Layer Interferometry (Sartorius). All measurements were performed in duplicate at 25° C. in an assay-specific buffer containing 1× PBS pH 7.4, 1× kinetic buffer and 1% BSA using 96-well plates with orbital shake speed of 1,000 rpm. The binding curves were generated by first immobilizing 1 mM N-terminally biotinylated KCNQ1 peptide on streptavidin-coated biosensor tips for 2.5 min followed by a baseline equilibration step for 5 min. The biosensor tips were then submerged in wells containing […] mAbs for 5 min to monitor formation of the mAb-peptide complex, followed by antibody dissociation in the assay buffer for 5 minutes. A shift in the interference pattern of white light reflected from the surface of a biosensor tip caused by antibody binding/dissociation was monitored in real time. Antibody-peptide interactions were analyzed by a 1:1 binding model and the dissociation constants (KDs) were determined as ratios of dissociation (koff) and association (kon) binding rate constants derived using non-linear fitting model in GraphPad Prism.

[2] = biological target: T1, N-terminally biotinylated KCNQ1 peptide …; assay: bio-layer interferometry (Octet RED96), biotinylated KCNQ1 peptide on streptavidin tips, 1:1 model, mean of duplicate runs
Protocol: as §1, §2

[3] = biological target: T2, KCNQ1 channel peptide (AEKDAVNESGRVEFGSYADA) (human); assay: SPR (Biacore 8K), antibody immobilised on CM5 chip, peptide as analyte, mean of triplicate
T2 construct: Coupled to KLH for immunisation; the free peptide (2.12 kDa) was the analyte in SPR; also called KCNQ1 peptide; antigenic peptide
T2 peptide: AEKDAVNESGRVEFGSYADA
Protocol: Antibody kinetics and affinity measurement: A Biacore 8K Surface Plasmon Resonance (SPR) instrument (GE Healthcare Life Sciences, ProteoGenix, France) equipped with a CM5 sensor chip was used to generate binding kinetic rate and affinity constants at room temperature. IgG2a 8-F11-D4 (10 μg/ml) was immobilized onto the CM5 chip by amide coupling, following manufacturer's protocol. The surface chemistry was activated using 1-Ethyl-3-(3-dimethylaminopropyl) carbodiimide hydrochloride (EDC) and sulfo-N-Hydroxysuccinimide (NHS) reagents prior to immobilization, while ethanolamine was used to deactivate remaining active esters. Samples were prepared in HBS-EP⁺ buffer composed of 10 mM HEPES (pH 7.4), 150 mM NaCl, 3 mM EDTA, 0.05% Surfactant P20. The antigenic peptide was suspended in 20 mM sodium acetate (pH 4.5) and glycine-HCl (pH 1.5) was used as regeneration buffer. […] This level was considered optimal based upon the calculation of the maximal response (Rₘₐₓ) of analyte (antigenic peptide) to ligand (IgG2a): Rₘₐₓ=(MWanalyte/MWligand)×RL×Sₘ, where MWanalyte and MWligand are the molecular weights of the peptide (analyte, 2.12 kDa) to the antibody (ligand, 180 kDa as determined by SDS-PAGE), respectively, RL is the target amount of ligand bound in RU, and Sₘ represents the stoichiometric ratio of the analyte/ligand interaction (Sₘ equals 1). A theoretical Rₘₐₓ of […] is achieved at 10′000 RU of ligand. […] Injections were performed in triplicate to assess for the assay's reproducibility. All data were processed and analyzed with Biacore 8K Evaluation Software.

[4] = biological target: T3, human KCNQ1 (expressed together with KCNE1 as a separate chain; IKs channel) (human, UniProt P51787 1-676); assay: cell-based or functional assay
T3 sequence: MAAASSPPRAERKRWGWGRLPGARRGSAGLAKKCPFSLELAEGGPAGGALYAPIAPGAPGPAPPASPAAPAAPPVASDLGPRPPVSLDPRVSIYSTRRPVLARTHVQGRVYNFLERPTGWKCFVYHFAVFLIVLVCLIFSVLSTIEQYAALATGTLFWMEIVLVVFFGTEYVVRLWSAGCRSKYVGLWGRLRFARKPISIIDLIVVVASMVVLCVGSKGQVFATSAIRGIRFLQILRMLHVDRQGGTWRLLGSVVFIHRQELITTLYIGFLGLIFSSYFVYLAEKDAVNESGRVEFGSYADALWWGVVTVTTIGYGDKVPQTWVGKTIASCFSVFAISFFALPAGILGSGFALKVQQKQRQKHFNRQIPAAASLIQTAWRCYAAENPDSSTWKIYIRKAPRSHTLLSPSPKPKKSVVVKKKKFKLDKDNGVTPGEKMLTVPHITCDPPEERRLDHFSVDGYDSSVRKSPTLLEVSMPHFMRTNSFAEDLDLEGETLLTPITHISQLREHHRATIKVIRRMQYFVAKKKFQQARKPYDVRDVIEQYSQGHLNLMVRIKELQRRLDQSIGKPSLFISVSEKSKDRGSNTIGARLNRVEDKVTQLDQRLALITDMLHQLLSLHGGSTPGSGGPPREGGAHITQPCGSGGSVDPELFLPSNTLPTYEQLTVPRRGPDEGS

Kd [1]: ~4 nM
Kd [2]: 3.7 nM
Kd [3]: 9.02 nM
koff [3]: 0.00082 s⁻¹
kon [3]: 90900 M⁻¹ s⁻¹
half-maximal effective concentration (EC50) of APD90 reduction in hiPSC-CMCs [4]: 5.7 µg/mL
mean IKs step current at +70 mV, whole-cell patch clamp, CHO cells stably expressing human IKs channels, 30 µg/ml IgG [4]: 1.6 fold
mean IKs tail current upon repolarization to -40 mV, whole-cell patch clamp, CHO cells stably expressing human IKs channels, 30 µg/ml IgG [4]: 1.5 fold
B1: IgG2a 8-F11-D4 monoclonal antibody (antibody, V domains shown)
VH: EVKLVESGGGLVKPGGSLQLSCAASGFTFSNYAMSWVRQTPEKRLEWVASISGGGNTYYPDSVKGRFTISRDNARNILYLQMNSLRSEDTAMYYCVRATRDYFDYWGQGTTLTVSS
VL: DIVMSQSPSSLAVSVGEKVTMSCKSSQSLLNSRTRKSYLAWYQQKPGQSPKLLIYWASTRESGVPDRFTGSGSGTDFTLTISSVQAEDLAVYSCEQSYYLYTFGGGTKLEIK
notes: also called mouse monoclonal IgG2a 8-F11-D4; murine monoclonal anti-KCNQ1 antibody IgG2a 8-F11-D4

IKs step current at +70 mV versus control, CHO cells stably expressing human IKs, 30 µg/ml recombinant antibody [4]: 1.6 fold
IKs tail current versus control, CHO cells stably expressing human IKs, 30 µg/ml recombinant antibody [4]: 1.5 fold
B2: recombinant murine IgG2a 8-F11-D4 antibody (antibody, V domains shown)
VH: B1 VH
VL: B1 VL
